# Results taken from patent publication US20240229000A1, “METHODS AND COMPOSITIONS THEREOF FOR SITE-[…] LABELING OF HUMAN IgG BY PROXIMITY-BASED SORTASE-MEDIATED LIGATION” (THE TRUSTEES OF THE UNIVERSITY OF PENNSYLVANIA, priority 2021, published 2024).
# B1: 5M SrtA-pG (protein)
# chain: MQAKPQIPKDKSKVAGYIEIPDADIKEPVYPGPATREQLNRGVSFAEENESLDDQNISIAGHTFIDRPNYQFTNLKAAKKGSMVYFKVGNETRKYKMTSIRNVKPTAVEVLDEQKGKDKQLTLITCDDYNEETGVWETRKIFVATEVKGGSGGSMTFKLIINGKTLKGEITIEAVDAAEAEKIFKQYANDYGIDGEWTYDDATKTFTVTE
# System: trastuzumab (HCLPETG+LC)
# Sequence (as listed by the source, other chains not shown): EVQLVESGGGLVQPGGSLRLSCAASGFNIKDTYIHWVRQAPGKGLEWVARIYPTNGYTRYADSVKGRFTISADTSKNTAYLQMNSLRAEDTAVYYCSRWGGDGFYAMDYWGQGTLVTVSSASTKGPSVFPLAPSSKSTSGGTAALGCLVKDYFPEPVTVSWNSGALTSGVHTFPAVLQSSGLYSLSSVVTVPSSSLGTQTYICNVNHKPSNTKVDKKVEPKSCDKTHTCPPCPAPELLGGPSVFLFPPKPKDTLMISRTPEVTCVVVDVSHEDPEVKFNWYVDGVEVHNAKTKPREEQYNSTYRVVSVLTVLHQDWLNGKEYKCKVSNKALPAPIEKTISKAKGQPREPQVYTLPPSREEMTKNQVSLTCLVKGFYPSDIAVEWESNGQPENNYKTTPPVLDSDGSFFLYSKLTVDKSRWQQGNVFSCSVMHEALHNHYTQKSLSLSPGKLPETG
# Assay: Proximity-based sortase-mediated protein ligation (PBS-PL) heavy chain labeling with GGG-TAMRA
# Format: biochemical
# Conditions: 1 μg trastuzumab (HCLPETG+LC), 200 μM GGG-TAMRA, 37° C. overnight
# Description: FIGS. 13A-13C show comparison of proximity-based sortase-mediated protein ligation with 1M SrtA versus traditional sortase labeling with the pentamutant SrtA. FIG. 13A: Heavy chain labeling of trastuzumab (HCLPETG+LC) was carried out by titrating 5M SrtA (5M SrtA/antibody molar ratios ranging from 1:1 to 100:1) and comparing the labeling efficiency to that of 5M SrtA-pG, 1M SrtA-pZ, 1M SrtA-pG, and 1M pG-SrtA. […] Labeling efficiencies of 5M SrtA (FIG. 13B) and 1M SrtA-pZ (FIG. 13C) on the heavy chain were further compared by scaling the GGG-TAMRA concentration from 1-200 μM. Reaction conditions included: 1 μg trastuzumab (HCLPETG+LC), 500 μM CaCl2, 200 μM GGG-TAMRA, and 0.63 μM SrtA variant (1:1 molar ratio of 1M SrtA-pZ to antibody) in 10 mM Tris-HCl buffer (37° C. overnight). For all titration experiments, all other reactions conditions were held constant. Labeling efficiencies were determined by measuring the fluorescent intensity of the heavy chain band. For each experiment, these values were normalized against the maximum fluorescent intensity to compare across reaction conditions. One-way ANOVA was used to determine statistical significance (*P<0.05, n.s.=not significant), followed by Tukey's multiple comparisons test. Bar graphs are represented as average f SD. N=3 per reaction condition.
molecule,measurement,value
B1,heavy chain labeling efficiency of trastuzumab (HCLPETG+LC),did not label antibodies as efficiently as 1 M SrtA-pG and 1M SrtA-pZ
